CN118063606A (JIANGXI SAIJI BIOTECHNOLOGY CO LTD; HANGZHOU SAIJI …, dated 2024)

Key:
[1] = biological target: 重组人THSD7A蛋白 (recombinant human THSD7A protein) (human) (UniProt Q9UPZ6); test: indirect ELISA on coated THSD7A, against the anti-THSD7A human serum standard
[2] = biological target: 重组人THSD7A蛋白 (recombinant human THSD7A protein) (human) (UniProt Q9UPZ6); test: indirect ELISA on coated THSD7A, serum standard read on the rhA3 standard curve
[3] = biological target: 重组人THSD7A蛋白 (recombinant human THSD7A protein) (human) (UniProt Q9UPZ6); test: indirect ELISA on coated THSD7A, value read from the curve of the anti-THSD7A human serum standard
[4] = biological target: T1, 重组人THSD7A蛋白 (recombinant human THSD7A protein) (human, UniProt Q9UPZ6 48-1606); test: phage ELISA / ELISA of supernatants on the antigen, then chemiluminescence immunoassay of purified antibody
T1 construct: Expressed by transient transfection of 293T cells; no tag is mentioned; also called hTHSD7A; 人源THSD7A
T1 sequence (Q9UPZ6 48-1606 limits assumed): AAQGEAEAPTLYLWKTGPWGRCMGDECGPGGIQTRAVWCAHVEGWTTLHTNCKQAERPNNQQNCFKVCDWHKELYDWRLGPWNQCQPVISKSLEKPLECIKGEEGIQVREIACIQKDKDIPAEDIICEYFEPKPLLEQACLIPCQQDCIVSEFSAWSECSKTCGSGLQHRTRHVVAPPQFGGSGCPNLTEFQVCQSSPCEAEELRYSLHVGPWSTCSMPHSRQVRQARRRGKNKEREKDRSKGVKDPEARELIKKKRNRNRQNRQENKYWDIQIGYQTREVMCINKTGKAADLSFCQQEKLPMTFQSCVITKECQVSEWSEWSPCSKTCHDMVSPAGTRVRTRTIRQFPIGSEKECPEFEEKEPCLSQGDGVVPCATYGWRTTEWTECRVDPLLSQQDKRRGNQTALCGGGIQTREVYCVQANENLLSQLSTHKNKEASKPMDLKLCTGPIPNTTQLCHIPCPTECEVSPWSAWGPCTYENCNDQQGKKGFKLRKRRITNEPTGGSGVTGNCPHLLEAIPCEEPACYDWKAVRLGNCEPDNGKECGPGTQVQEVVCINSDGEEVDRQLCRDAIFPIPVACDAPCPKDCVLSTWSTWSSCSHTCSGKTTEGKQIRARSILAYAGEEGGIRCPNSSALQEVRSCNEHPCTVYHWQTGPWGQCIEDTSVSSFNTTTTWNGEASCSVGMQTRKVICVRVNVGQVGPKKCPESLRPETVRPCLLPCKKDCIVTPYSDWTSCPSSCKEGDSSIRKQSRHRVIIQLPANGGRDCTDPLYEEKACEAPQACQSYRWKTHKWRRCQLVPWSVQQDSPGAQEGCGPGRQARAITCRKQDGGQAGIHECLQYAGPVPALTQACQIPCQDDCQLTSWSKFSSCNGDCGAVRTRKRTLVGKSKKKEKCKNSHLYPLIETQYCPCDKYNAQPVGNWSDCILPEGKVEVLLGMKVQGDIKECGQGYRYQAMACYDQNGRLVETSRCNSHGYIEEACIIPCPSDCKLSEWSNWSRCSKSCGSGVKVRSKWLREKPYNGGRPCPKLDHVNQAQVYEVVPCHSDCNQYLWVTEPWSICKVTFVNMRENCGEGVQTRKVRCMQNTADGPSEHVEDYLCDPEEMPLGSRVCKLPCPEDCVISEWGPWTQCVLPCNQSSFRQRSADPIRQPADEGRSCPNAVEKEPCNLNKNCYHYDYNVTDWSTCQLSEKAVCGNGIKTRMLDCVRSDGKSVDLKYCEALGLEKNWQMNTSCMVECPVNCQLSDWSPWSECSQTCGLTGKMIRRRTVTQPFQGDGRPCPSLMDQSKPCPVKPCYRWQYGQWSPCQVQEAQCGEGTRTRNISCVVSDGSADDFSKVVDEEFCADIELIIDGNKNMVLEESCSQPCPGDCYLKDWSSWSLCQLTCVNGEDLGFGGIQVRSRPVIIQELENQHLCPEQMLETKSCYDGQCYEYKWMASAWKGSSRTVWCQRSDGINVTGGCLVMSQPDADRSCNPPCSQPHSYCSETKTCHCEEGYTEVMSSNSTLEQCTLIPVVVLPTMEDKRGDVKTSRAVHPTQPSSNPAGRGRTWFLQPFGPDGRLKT

B1: 嵌合单抗rhA3 (重组嵌合抗体A3单抗) (antibody, human IgG4 S228P, kappa, V domains shown)
VH: QSVKESGGRLVTPGGTLTLTCTVSGFSLSTYYMSWVRQAPGKGLEWIGSIESYGDRYYATWAKGRFTISKTSSTTVDLKMTSLTASDTATYFCTRNDLSWDNDNIWGPGTLVTVSS
VL: DVQMTQTPSSVSVSVGGTVTINCQASQSVYGNNELNWYQQKSGQPPKLLIYKAGTLASGVPSRFSGSGSGTQFTLTISDLECDDAAIYYCQGGYWGQRAFGGGTKLEIKR
THSD7A抗体活性 per ng [1]: 3 U/ng
比活 at 4ng/mL rhA3 [1]: 3.01 U/ng
比活 at 20ng/mL rhA3 [1]: 2.99 U/ng
比活 at 100ng/mL rhA3 [1]: 3.05 U/ng
比活 (serum standard 12U/mL on rhA3 curve) [2]: 3.01 U/ng
比活 (serum standard 60U/mL on rhA3 curve) [2]: 2.97 U/ng
比活 (serum standard 300U/mL on rhA3 curve) [2]: 2.97 U/ng
THSD7A抗体浓度 (read from serum standard curve) at 4ng/mL rhA3 [3]: 12 U/mL
THSD7A抗体浓度 (read from serum standard curve) at 20ng/mL rhA3 [3]: 60.5 U/mL
THSD7A抗体浓度 (read from serum standard curve) at 100ng/mL rhA3 [3]: 305 U/mL

B2: 小鼠抗THSD7A单抗A3 (antibody, V domains shown)
VH: B1 VH
VL: DVQMTQTPSSVSVSVGGTVTINCQASQSVYGNNELNWYQQKSGQPPKLLIYKAGTLASGVPSRFSGSGSGTQFTLTISDLECDDAAIYYCQGGYWGQRAFGGGTKLEIK
notes: Selected from a phage scFv library of immunised mice; variable regions cloned into a eukaryotic expression vector and expressed in 293T cells
binding result [4]: binds
